Measurements: publication PMC7688132, “Preparation and characterization of monoclonal antibodies recognizing two CD4 isotypes of Microminipigs” (PLoS ONE, 2020)
One block for each binder: values may come before it.

Experiments:
[1] = target: T1, CD4.B, endogenous in CD4.B (+/+) Microminipig cells (Sus scrofa, Microminipig, allele CD4.B …, UniProt A0A0M4UHP2, strain); test: flow cytometry on cells; CD4.A (+/+) and CD4.B (+/+) swine PBMCs stained with the purified mAb and anti-mouse IgG-APC (b1D7) or anti-mouse IgG2a-FITC (x1E10); lymphocyte gate; isotype control; settings: one partner purified
T1 construct: CD4 allele CD4.B of the Microminipig, as in animals genotyped CD4.B (+/+) by PCR-RFLP; allele mRNA LC064060; also called CD4.B (+/+) swine PBMCs; CD4.B (+/+) spleen; source: endogenous, CD4.B (+/+) Microminipig PBMCs and spleen tissue sections

[2] = target: T2, CD4.A, endogenous in CD4.A (+/+) Microminipig cells (Sus scrofa, Microminipig, allele CD4.A …, UniProt A0A0M3VH80, strain); test: as above; settings: one partner purified
T2 construct: CD4 allele CD4.A of the Microminipig, as in animals genotyped CD4.A (+/+) by PCR-RFLP; allele mRNA LC064059; also called CD4.A (+/+) swine PBMCs; CD4.A (+/+) spleen; source: endogenous, CD4.A (+/+) Microminipig PBMCs and spleen tissue sections

[3] = target: T3, swine (Microminipig) CD4.B expressed on transfected HEK293 cells (Sus scrofa, Microminipig, allele CD4.B, UniProt A0A0M4UHP2, strain); test: flow cytometry on cells; HEK293 transfected with CD4.A or CD4.B (mVenus co-expressed) stained with hybridoma clone supernatant, then anti-mouse IgG-APC; settings: partners not purified
T3 construct: CD4 allele CD4.B of the Microminipig; five replacements between the alleles are printed (T61I, G65R, G66S, G68R, T73K); also called CD4.B transfectant; source: HEK293, transfected (S/MAR episomal vector, mVenus co-expressed), on cells

[4] = target: T4, swine (Microminipig) CD4.A expressed on transfected HEK293 cells (Sus scrofa, Microminipig, allele CD4.A, UniProt A0A0M3VH80, strain); test: as above; settings: partners not purified
T4 construct: CD4 allele CD4.A of the Microminipig; also called CD4.A transfectant; source: HEK293, transfected (S/MAR episomal vector, mVenus co-expressed), on cells

[5] = target: T3, swine (Microminipig) CD4.B expressed on …; test: flow cytometry on cells; HEK293 transfected with CD4.A or CD4.B stained with biotinylated x1E10 and streptavidin PE-Cy7; settings: one partner purified
[6] = target: T4, swine (Microminipig) CD4.A expressed on …; test: as above; settings: one partner purified

- binding result [1]: binds
- binding result [2]: binds
- binding result [3]: binds
- binding result [4]: binds
B1: anti-swine CD4.AB mAb x1E10 (antibody, V domains shown)
VH: DVQLQESGPGLVKPSQSLSLTCTVTGYSIISDYAWNWIRQFPGNKMEWMGYILYSGTTNYNPSLKSRISITRDTSKNQFFLQLNSVTTEDTATYYCARRTYYDYDYYGMDYWGQGTSVTVSS
VL: DVLMTQIPLSLPVSLGDQASISCRSSQTIVHSLGNTYLEWYLQKPGQSPKLLIYKVSNRFSGVPDRFIGSGSGTDFTLKITRVEAEDLGVYYCFQGSHVPWTFGGGTKLEIK
notes: IgG2a kappa; also called x1E10 (1C3-1E8); anti-CD4AB mAb; source: mouse hybridoma (BALB/c splenocytes fused with P3-X63-Ag8-U1), clone supernatant; purified mAb

- binding result [5]: binds
- binding result [6]: binds
B2: biotinylated x1E10 mAb (antibody, V domains shown)
VH: B1 VH
VL: B1 VL
notes: as the heavy chain of m2; as the light chain of m2; IgG2a kappa; same antibody as m2 with a biotin label; also called x1E10 labeled with biotin; source: mouse hybridoma x1E10; biotinylated with Biotin Labeling Kit (Cosmo Bio)
